As usually defined, the Kd is the constant that tells how readily two partners part at equilibrium. The koff is the rate constant with which the complex falls apart.

Ends that are not written are not given here. Fluorescein‑5‑maleimide = reacted with thiol of C-terminal Cys

We go through two molecules from patent US11622990 (FUDAN UNIVERSITY, dated 2023).

Experiment [1] addresses T1, GRP78 on the surface of HUVEC cells.
T1 construct: also called GRP78 on human umbilical vein endothelial cells
The experiment in a line: confocal microscopy of HUVEC cells, 5 µM labelled peptide, 4 h, 37 °C (uptake).

Experiment [2] concerns the target T2, GRP78 on the surface of glioma cell U87 (UniProt P11021 19-654, limits assumed).
T2 construct: whole, on cells; also called receptor protein on the cell surface; GRP78 protein
The experiment in a line: confocal microscopy of U87 cells, 5 µM labelled peptide, 4 h, 37 °C (uptake).

The target in experiment [3] is T3, Recombinant human glucose-regulated protein GRP78 (human, UniProt P11021 19-654, limits assumed).
T3 construct: also called Bip
Nature of the experiment: SPR (Biacore T200), recombinant human GRP78 coupled to a CM5 chip, peptide injected at 0.3125-20 µM. (In general: Surface plasmon resonance follows binding to a sensor surface in real time, without labels.)

T3 sequence (P11021 19-654 limits assumed): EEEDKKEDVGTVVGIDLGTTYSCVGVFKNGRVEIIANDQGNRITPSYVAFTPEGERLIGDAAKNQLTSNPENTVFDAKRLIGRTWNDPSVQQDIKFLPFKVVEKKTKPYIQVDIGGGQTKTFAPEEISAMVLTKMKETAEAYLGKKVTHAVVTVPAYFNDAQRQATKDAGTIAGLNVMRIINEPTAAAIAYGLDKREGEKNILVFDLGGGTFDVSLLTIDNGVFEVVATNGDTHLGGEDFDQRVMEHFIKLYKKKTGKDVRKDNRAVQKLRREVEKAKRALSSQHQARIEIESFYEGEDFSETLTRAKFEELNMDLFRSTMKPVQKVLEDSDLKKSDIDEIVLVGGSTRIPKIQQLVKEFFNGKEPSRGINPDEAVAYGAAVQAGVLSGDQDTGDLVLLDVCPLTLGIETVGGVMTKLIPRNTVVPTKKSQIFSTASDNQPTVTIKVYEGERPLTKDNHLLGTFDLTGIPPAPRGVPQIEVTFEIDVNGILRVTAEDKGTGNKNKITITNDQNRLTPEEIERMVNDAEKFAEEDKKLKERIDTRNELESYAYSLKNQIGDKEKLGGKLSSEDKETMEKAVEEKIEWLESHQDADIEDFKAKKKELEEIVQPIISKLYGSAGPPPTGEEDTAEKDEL
T2 sequence (P11021 19-654 limits assumed): as above
T1 sequence (chain, as listed by the source limits assumed): as the sequence (P11021 19-654 limits assumed) above

SNTRVAPC(Fluorescein‑5‑maleimide) (also called Fluorescein-labeled ^LVAP) [LVAP-Fluorescein]: the binding result in experiment [1] and in experiment [2] was “binds” each time.
SNTRVAP [LVAP (L-configuration peptide SNTRVAP)]: in experiment [3], the dissociation constant (Kd) came out at 2.7 µM and the koff turned out to be 0.019 s⁻¹.
